Measurements reported in patent US8658672.

Assays:
[1] = molecular target: [35S]-labeled human HIF-1α protein, Q16665
[2] = molecular target: T1, F-HIF-1α peptide (788-822 amino acids)
T1 chain: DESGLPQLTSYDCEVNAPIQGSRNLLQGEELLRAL

Sequence of [35S]-labeled human HIF-1α protein, Q16665 (Q16665 401-826): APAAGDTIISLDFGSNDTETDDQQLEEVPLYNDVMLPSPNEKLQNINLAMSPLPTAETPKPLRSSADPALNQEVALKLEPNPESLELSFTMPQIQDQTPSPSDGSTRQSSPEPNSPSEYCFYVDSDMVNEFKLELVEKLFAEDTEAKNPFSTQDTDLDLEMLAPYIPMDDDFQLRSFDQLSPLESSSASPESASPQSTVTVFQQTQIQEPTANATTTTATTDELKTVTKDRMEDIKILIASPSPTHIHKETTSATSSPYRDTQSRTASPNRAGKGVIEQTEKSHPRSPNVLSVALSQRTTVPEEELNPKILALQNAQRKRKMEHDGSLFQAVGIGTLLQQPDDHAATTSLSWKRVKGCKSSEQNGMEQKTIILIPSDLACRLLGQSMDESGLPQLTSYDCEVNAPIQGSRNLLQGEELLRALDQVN

B1: recombinant human FIH-1, histidine-tagged fusion protein (protein)
chain: MAATAAEAVASGSGEPREEAGALGPAWDESQLRSYSFPTRPIPRLSQSDPRAEELIENEEPVVLTDTNLVYPALKWDLEYLQENIGNGDFSVYSASTHKFLYYDEKKMANFQNFKPRSNREEMKFHEFVEKLQDIQQRGGEERLYLQQTLNDTVGRKIVMDFLGFNWNWINKQQGKRGWGQLTSNLLLIGMEGNVTPAHYDEQQNFFAQIKGYKRCILFPPDQFECLYPYPVHHPCDRQSQVDFDNPDYERFPNFQNVVGYETVVGPGDVLYIPMYWWHHIESLLNGGITITVNFWYKGAPTPKRIEYPLKAHQKVAIMRNIEKMLGEALGNPQEVGPLLNTMIKGRYN
interaction of [35S]-HIF-1α with bead-bound GST-CBP after reaction with FIH-1 [1]: the addition of FIH-1 reduced significantly the interaction between HIF-1α and CBP | MALDI-TOF mass of the peptide after incubation with FIH-1 (asparagine hydroxylation) [2]: after treatment with FIH-1 the peptide gave a new MALDI-TOF peak corresponding to an increase of molecular weight of 16
